Data reported in the DeepSol protein solubility set.

Assay: soluble on expression in E. coli; label from the status in PepcDB or PDB records

| Sequence | soluble on expression in E. coli |
| --- | --- |
| MKKTPLYEAHLRLGARMVDFAGYLLPLQYTSIVEEHLAVRRAVGVFDVSHMGEFLVRGKEALAFLQWATANDAGKLKVGRAQYSMLPNERGGVVDDIYLYRLGEEEYLMVVNAANIAKDLAHLQALAKGFRVELEDASERTALLALQGPKAASLLQGLTDLDLSQKRKNDVFPARVAGRPARLARTGYTGEDGFELFLAPEDAEPVFLALVEAGAKPAGLGARDSLRLEAGFPLYGHELTEETNPLCTPWAWVVKKEKAFLGKEAMLAQACRERLVGLVLEGGIPREGYRVLSGGRPVGRVTSGGYSPLLQRGIALAYVEEGAEGPFQVEVRGRAVPAALSPLPFVPLK | soluble |
| MKKVIGIGEYAVMKNPGVIVTLGLGSCVAVCMRDPVAKVGAMAHVMLPDSGGKTDKPGKYADTAVKTLVEELKKMGAKVERLEAKIAGGASMFESKGMNIGARNVEAVKKHLKDFGIKLLAEDTGGNRARSVEYNIETGKLLVRKVGGGEQLEIKEI | soluble |
| MKKVLIVFGTRPEAIKMAPLVQQLCQDNRFVAKVCVTGQHREMLDQVLELFSITPDFDLNIMEPGQTLNGVTSKILLGMQQVLSSEQPDVVLVHGDTATTFAASLAAYYQQIPVGHVEAGLRTGNIYSPWPEEGNRKLTAALTQYHFAPTDTSRANLLQENYNAENIFVTGNTVIDALLAVREKIHTDMDLQATLESQFPMLDASKKLILVTGHRRESFGGGFERICQALITTAEQHPECQILYPVHLNPNVREPVNKLLKGVSNIVLIEPQQYLPFVYLMDRAHIILTDSGGIQEEAPSLGKPVLVMRETTERPEAVAAGTVKLVGTNQQQICDALSLLLTDPQAYQAMSQAHNPYGDGKACQRIADILAK | not soluble |
| MKKVSSQILHQLRSQRGQSGMWCTNLTHSSTTHHQHPRQTSSHLLQRLESAPCLLKLSTTLLCLEIQQSMSLHPKEAILTTPDAVHREKMLTRSRKGDQTHEDQTDGTRKARNNIGPPNLFWITAKFQEQSTKMPNCWCLQLVNCAQSSILIGLWML | not soluble |
| MKKWEKQTMKIAALGAMALTLAGCATAKSSSSQGNNPGKTIKIGVNMELSGSAAGYGEQQKQGIQLAVKKINKSGGIKVGGTKKKIQLVIRDNKTSNTTAASVAAQLVNNDKVVAVVGPATTSAGTAAIPNMTKAAVPSVSPSATDPDYTLQKSGKVQKYIFRACYQNNFQGATAATFVTKNLKAKRVAILTDNSSDYGTGLTKAFKKQYRGTVVSSQTFQEGDKDFNAILTALKHKKIDAIYAPGYYSEIGLIVKQARQAGIKAPIVGSDGMADAKLAQIAGKSNATNVYYTTPFSTKASATNKVASKFMSAYKAKYGSTAPTFSALAYDSVYMIKAAIEKEGSANSVKIADGLAKLKNFKGVTGTMTIDKQHNPEKTISIEQLTNGVVSKVYNVK | soluble |
| MKKWLLAAGLGLAMVTSAQAADKIAIVNMGNLFQQVAQKTGVSNTLENEFKGRAAELQKMETDLQSKMQRLQSMKAGSDRTKLEKDVMSQRQTFAQKAQAFEKDRARRSNEERNKLVTRIQTAVKKVANDQSIDLVVDANTVAYNSSDVKDITADVLKQVK | not soluble |
| MKLATLKNNTRDGQLVVVNRALDKAVVVSHIAATLQAALDNWSEISPKLAEVYQSLNNNEITDTLVFEQAACESPLPRAYQWADGSAYVNHVELVRKARNAEMPATFWTDPLMYQGGSDAFIGPRDDISIASEEYGIDFESEVAVITDDVPMGISVEQAANHIKLLMLVNDVSLRNLIPGELAKGFGFFASKPSSAFSPVAVTPDELGDAWDGKKLHLPLTTHLNETLFGQPNCGVDMTFDFPTIVAHAAKTRPLSTGCVIGSGTISNYDRSVGSSCLAEIRMLEIIADGKPTTPFMSFGDTVRIEMFDNEGASIFGSIDQKVVEYKAQ | not soluble |
| MKLAVYSTKQYDKKYLQQVNESFGFELEFFDFLLTEKTAKTANGCEAVCIFVNDDGSRPVLEELKKHGVKYIALRCAGFNNVDLDAAKELGLKVVRVPAYDPEAVAEHAIGMMMTLNRRIHRAYQRTRDANFSLEGLTGFTMYGKTAGVIGTGKIGVAMLRILKGFGMRLLAFDPYPSAAALELGVEYVDLPTLFSESDVISLHCPLTPENYHLLNEAAFEQMKNGVMIVNTSRGALIDSQAAIEALKNQKIGSLGMDVYENERDLFFEDKSNDVIQDDVFRRLSACHNVLFTGHQAFLTAEALTSISQTTLQNLSNLEKGETCPNELV | soluble |
| MKLFERIHQDTEIRQIYDAIGQMEDEEAGWAYHNWFHVTNVVAMTEMILKQLAVSEEYLEAAKIAALLHDVGALQGKAGHALRGKQFAEAYFRKQKICLPYQEEILSSIENHSNGFDSEELMTLALIISDKLDITTSRVAKAGYFVPGMRQFQFLKKIEIMLSEQEVCVSFTAEEELDLEELNAFYFMPKVFKAIAAFSGKIQRRPIVLLNNQEWPVPKQKNPSTVH | not soluble |
| MKLFERIHQDTEIRQIYDAIGQMEDEEAGWAYHNWFHVTNVVAMTEMILKQLAVSEEYLEAAKIAALLHDVGALQGKAGHALRGKQFAEAYFRKQKICLPYQEEILSSIENHSNGFDSEELMTLALIISDKLDITTSRVAKAGYFVPGMRQFQFLKKIEIMLSEQEVCVSFTAEEELDLEELNAFYFMPKVFKAIAAFSGKIQRRPIVLLNNQEWPVPKQKNPSTVHLEHHHHHH | soluble |
| MKLKIGIVCYPTVGGSGVVATELGKLLAERGHEIHFISSSMPFRLNKVYGNIYYHEVSVNQYSVFQYPPYDLALASKIAEVAKRERLDVLHAHYAVPHAVCAVLARQMVGELPIITTLHGTDITVLGYDPSLSDMIKFGIEQSDIVTAVSDALARQTYELLDVQATIHTVYNFVDERVYRRREAGHLRREYGIRDDERVVIHVSNFRKVKRVPDVVRAFAIVRRHVPAKLLLVGDGPEMTVVCRLVKELGLQDDVRFLGKQDKLEELYSISDVMMLLSEKESFGLVLLEAMACGVPCIGTAIGGIPEVIEDGKTGFLCPLGDVKEAARQAMALLTDCRLHAEMARQAVQTVERKFRSADIVGQYEQLYASLAARKVKR | not soluble |
| MKLKLVDVETNPHEEEVGTCEFCMSVEMVNEPVFVFKKDIGELVRVKAFIWSWGFYDEENIENIVDFAAYVNEQEFDEEQELDYSWLTNLIYEYEYGKDC | not soluble |
| MKLKSFGVFGNPIKHSKSPLIHNACFLTFQKELRFLGHYHPILLPLESHIKSEFLHLGLSGANVTLPFKERAFQVCDKIKGIALECGAVNTLVLENDELVGYNTDALGFYLSLKQKNYQNALILGAGGSAKALACELKKQGLQVSVLNRSSRGLDFFQRLGCDCFMEPPKSAFDLIINATSASLHNELPLNKEVLKGYFKEGKLAYDLAYGFLTPFLSLAKELKTPFQDGKDMLIYQAALSFEKFSASQIPYSKAFEVMRSVFLEHHHHHH | soluble |
| MKLLKDLLVDRKEFEDWKNNLTWARDGTLYLTTFPDISIGQPKYAKDINCNSKNLFHVKEFPLEFENKLDFELAQQNGLLNSQPVCYPRVCKPSPIDDWMAVLSNNGNVSVFKDNKMLTNLDSKGNLSSRTYHCFEWNPIESSIVVGNEDGELQFFSIRKNSENTPEFYFESSIRLSDAGSKDWVTHIVWYEDVLVAALSNNSVFSMTVSASSHQPVSRMIQNASRRKITDLKIVDYKVVLTCPGYVHKIDLKNYSISSLKTGSLENFHIIPLNHEKESTILLMSNKTSYKVLLEDELHVTADNIIAPYLEKKFKKWSTIWNEFNNYETTLVIHGISLSPDGYSIAIVYDMERVAFKYKIASEQSFNIMFAPLYHTWTISERAVGLAWYQTYQIYNQSLPKLPENFSMNKKLLNGNYPISLDFQSYLNALMKSEEMRIIMFLNMTIDKPSILSFLEALYEYAINKKSELTNSFDLACVLSIAAILKREAPIYNGTLLMKNSFLEETFNLESFTADPETVTSTTNNTWKRCGVTLLPILTTHVKICPVSKQRVIDIKRDDLNDYGWFTRGLLERFNEISVYCGTTLEVM | soluble |
| MKLNFNPVTKEEIHQLETALLVGTLFRKEVLEEIRNSAERLTWVDSLAVAAGALARAKAGMTASEIAEELGRTEATIREHVKGETKAGKLVNETYELLKEGKLSVEGLIGEGIKVVTTTTGSDEKLQEVKKELEEIKQKLESVIQKL | soluble |
| MKLNFSLYRYNPDVDNKPYMKDYILEVEEGSDMMVLDALILLKEQDPSIAFRRSCREGVCGSDGLNMNGKNGLACITPLSALKGDKIVIRPLPGLPVVRDLIVDMTQFYDNYAKVKPFLIADDALPPSRENLQSPEERAHLDGLYECIMCACCTTSCPSFWWNPDKFIGPAGLLAAYRWLIDSRDTATDERLSNLDDAFSVFRCHGIMNCVSVCPKGLNPTKAIGHIKSMLINRSV | not soluble |
| MKLSPSVIALSVLLSSHTLANTAGQVETCQQKAQDIQRQIDEAHKHGNQNRINGLEKALDGVKNHCTDAGLAEKRQEAIAEKRKDVAERQQELSESRQKRDDAEKILKRERKLAEAEQELRAAESGASQLEHHHHHH | soluble |
| MKLTGFLKQNVRVRFAPSPTGHLHIGGLRTAFFNYLFAKKYGGDFILRIEDTDRTRFVDDAQDQIYSSLNFYNLLPDEGPREGGKFGPYEQSKRLEIYRNAAYRLIDSGHAYRCFCSENRLDLLRKTAEKRGEIPKYDRKCANLSSRDAVKMEQNGEKFVIRFKLDKQNVQFHDEVFGSVNQFIDESDPVLLKSDGFPTYHLANVIDDRKMEISHVIRGMEWLSSTGKHTILYKAFNWTPPKFVHLSLIMRSATKKLSKRDKDAFVSYYSEQLGALPEAVLNLMIRNGAGIRNFDAEHFYSLDEMIEQFDLSLLGRRNLLLDSDVLQKYSRMAFQKSDFKELYPRIIDILNKKSNYSTSREDIQKIVTFLKAKEENFGFLSSLSTEFSWFFTRPQSSQLLKESHPNVDLRNILNSLLEIEVFNSESLEYLAKNHQLNLAKAMGIVRISLIGSKKGPPISELVEFFGMTECHRRIRIMQELL | not soluble |
| MKLTPNFYRDRVCLNVLAGSKDNAREIYAAAEGHVLVGVLSKNYPDVASAVADMREYAALIDNALSVGLGAGDPNQSAMVSEISRQVQPQHVNQVFTGVGTSRALLGQNETVVNGLVSPTGTPGLVKISTGPLSSRAPDGIVPIETAIALLKDMGGSSVKYFPMGGLTCRDEYKAVAEPAPAMISGWNRRAVSIWKTSPRFCTSPLMQV | not soluble |
| MKLVTGFARIRKPSRPIEFGRWPNRSMSVRVPGAMPLASMNLAVGQSVRIGQRPNSSPSSLPNISFAKIRRWPSRRWLRHQGLHGPIDFGRWPNETMSIRVPGAMPLASMKLAVGQSTALAKGQTQHSQRATPLVLQRTTHTLANGQMQPIITPKRIVHQTRSHIVGGSRDIRLGMSLPGDAPAGSRCRQRRFHDALGRPKRSRTLVANRTCPGWDVASSQTWTSPAWPSPQSPSPDGFGSCQTNKDLTSRGCGG | not soluble |
| MKMDYILSDFAQKQGYAVESYEIVDSTNYIAQQKAHAGHHGYLWVVAKEQSQGRARRGRTWSSPKGNLYSSLLLVEDIVHQTAAQLGFVAGVSVVETIKQFIKDEKQTSDIVSLKWPNDILLRGAKSSGILLEIFKLPSQQYALVIGIGINVKYHYEDAPYPTSSLKNIGLDIETEQLFTVLTEYFSKNYLLWKQLGGCDRIREKWLLYSAHSGQYVKIVNDEKIIEGIFDGLDNDFNCVIKQKNGQQAVITAGDVHFGSSASVNAGCY | not soluble |
| MKNFVRTTLLAATLAGVSFGAFATAVPNPPLPAQDPIVQHLKLTNDQITRIKKLHQQLETDVSQISMKGIKDGALIEVIKSGKWDDAAVKQQLAAFSNIEQQARYYRVKYYFDLSKVLTPEQRQQVQQDLAQALELEHHHHHH | soluble |
| MKNKPLGLWLMSLLVLVGCKANQDDLTSYVAQVEREARKEVTKLKPILEFEATPYQQHKGREPFVLPKEALVQNQPLAKADCWQPVPRAKNGPLERYPLHQLRLKGVMSSGGSISALVQTPAGSVVKVKAGQYVGINNGKVTRVDDNYLLINETLPDGLGCWNQRNVKLALK | not soluble |
